Assay results reported in patent publication US20140072980A1.

How the values were obtained:
[1] = molecular target: IgG1 Fc/Fc* bispecific antibody; test: flow cytometry: antibody displayed on CHO cells by CSCP FcγR, detected with Anti-hFc
[2] = molecular target: IgG1 Fc/Fc monospecific antibody; test: as above

“human FcγRI (from UniProt P12314 16-374) (receptor)” was tested. Which Mean Fluorescence Intensity (MFI) [1] did it give?
Its Mean Fluorescence Intensity (MFI) is 1800 MFI.

And the Mean Fluorescence Intensity (MFI) [2]?
Its Mean Fluorescence Intensity (MFI) is 1000 MFI.
